# Experimental data taken from patent publication US20200400662A1 (ALX ONCOLOGY, published 2020).
# Molecular target: Drug A
# Assay: cell-based or functional assay
binder,measurement,value
"Fab of Antibody B (Fab, V domains shown) VH: not shown VL: ETVLTQSPGTLTLSPGERATLTCRASQSVYTYLAWYQEKPGQAPRLLIYGASSRATGIPDRFSGSGSGTEFTLTISSLQSEDFAVYYCQQYYDRPPLTFGGGTKVEIK",hemagglutination of Drug A-coated erythrocytes with anti-IgG; molar excess of Fab that prevented it,400 fold molar excess relative to Drug A
